Results as given in patent US20230235078A1 (University of Texas, published 2023).
Residue numbers refer to the chain shown, from its start.

T1: human DDR2 ECD (human, UniProt Q16832 22-399)
T1 construct: extracellular domain; also called DDR2 ECD protein
T1 sequence (looked up): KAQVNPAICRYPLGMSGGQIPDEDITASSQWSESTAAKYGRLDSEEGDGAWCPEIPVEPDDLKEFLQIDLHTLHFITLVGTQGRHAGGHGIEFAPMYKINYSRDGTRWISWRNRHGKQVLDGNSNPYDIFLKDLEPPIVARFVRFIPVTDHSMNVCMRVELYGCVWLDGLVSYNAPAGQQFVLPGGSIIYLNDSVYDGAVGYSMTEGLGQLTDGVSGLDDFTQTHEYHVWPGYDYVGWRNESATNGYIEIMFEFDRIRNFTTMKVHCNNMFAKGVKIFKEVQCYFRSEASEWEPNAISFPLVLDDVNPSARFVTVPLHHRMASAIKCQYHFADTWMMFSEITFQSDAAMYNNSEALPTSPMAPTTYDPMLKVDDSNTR

B1: DDR1-13 (antibody, V domains shown)
VH: EQSVEESGGRLVTPGGSLTLTCTASGFSLNNYAIIWVRQAPGKGLEYIGIFNNGDIYYANWAKGRFTISKTSTTVGLKIVSPTTEDTATYFCARTGYRTGGWLWGPGTLVTISS
VL: ELVMTQTPSPVSAAVGGTVSISCQSSKSVYNNNALSWFQQKPGQPPKVLIYGVSTLDSGVSSRFSGSGYGTEFTLTISDVQCDDAATYYCAGDYSDISDNNFGGGTELEIK
notes: Rabbit variable domains; Detected with anti-rabbit HRP antibody in the DDR2 ELISA; also called DDR1-13K/DDR1-13H
B2: DDR1-15 (antibody, V domains shown)
VH: SQSLEESGGDLVKPGASLTLTCTASTFSFNSRYWTCWVRQAPGKGLEWIGCINNGDISTYYASWATGRFTISKSSSTTVTLHMTSLTAADTATYFCAKGGNLAGDCYGLWGPGTLVTISS
VL: ELVMTQTPASVEVAVGGTVTIKCQASQTIYSSLAWYQQKPGQPPKLLIYKASTLASGVPSRFKGSGSGTQFTLTISGVQCDDAATYYCQQGSSISNVDKNAFGGGTEVEIK
notes: Rabbit variable domains; Detected with anti-rabbit HRP antibody in the DDR2 ELISA; also called DDR1-15K/DDR1-15H
B3: DDR1-21 (antibody, V domains shown)
VH: QSLEESGGRLVTPGTPLTLTCTVSGFSLSSYGVHWVRQAPGKGLDWIGKIYPSGSIYYSSWAKGRFTISKTSTTVDLKMTSLTTEDTATYFCVRYLTGSSDLHLWGPGTLVTISS
VL: ELVLTQTPSSTSAAVGGTVTISCQSSQSVVDKNWLAWYQQKPGQPPKLLIYEASKLASGVPPRFSGSGSGTQFTLTISGVQCDDAATYYCAGDFESGVSGFGGGTEVEIK
notes: Rabbit variable domains; Detected with anti-rabbit HRP antibody in the DDR2 ELISA; also called DDR1-21K/DDR1-21H
B4: DDR1-22 (antibody, V domains shown)
VH: QSVKESGGRLVTPGGSLTLTCTVSGFSLSDYAMIWVRQAPGKGLEYIGIINNGDIYYATWAKGRFTISETSSTTMGLNIISPTTEDTATYFCARPGYRTGIWLWGPGTLVTISS
VL: ELVLTQTPSPVSAAVGGTVTINCQSSKNIYNNNALSWFQQKPGQPPKLLIYGASTLASGVPSRFKGSGSGTQFTLTISDVQCDDAATYYCAADYSDISDNNFGGGTEVVVK
notes: Rabbit variable domains; Detected with anti-rabbit HRP antibody in the DDR2 ELISA; also called DDR1-22K/DDR1-22H
B5: DDR1-34 (antibody, V domains shown)
VH: QSVKESGGGLVKPEGSLTLTCKASGFDLSSYYYMCWVRQAPGKGLEWIACIYTSSGATWYANWAKGRFTISKTSSTTVTLQMTALTAADTATYFCARGGWCDFNLWGPGTLVTISS
VL: ELDLTQTPASVSAAVGGTVTISCQSSENLYKDNYLAWYQQKPGQPPKLLIYGASNLASGVPSRFKGSGSGTQFTLTISDLECDDAATYYCAGGYDSVVDFGGGTEVVVK
notes: Rabbit variable domains; Detected with anti-rabbit HRP antibody in the DDR2 ELISA; also called DDR1-34K/DDR1-34H
B6: DDR1-9Hu-Ab2 (antibody, V domains shown)
VH: QVQLVESGGRVVQPGRSLRLSCTASGFSLNRYYMLWVRQAPGKGLEWIGTISYGDTTYYASWAKGRFTISRDNSKNTLYLQMNSLRAEDTAVYYCARADTGDNGYLGLQLWGQGTLVTVSS
VL: DIQMTQSPSSVSASVGDRVTITCRASQSIGSVLAWYQQKPGKAPKLLIYGVFSLQSGVPSRFSGSGSGTDFTLTISSLQPEDFATYYCQYIPYGSSPFGGGTKVEIK
notes: Humanized form of DDR1-9
B7: DDR1-5 (antibody, V domains shown)
VH: QSVKESGGRLVTPGTPLTLTCTVSGFTLSNNAISWVRQAPGKGLEWIGIIYASGRTYYATWAKGRFTISKTSTTVDLKMTSPTTEDTATYFCARGDTETDYGIPYFDLWGPGTLVTISS
VL: ELVLTQTPASVSEPVGGTVTIKCQASQTISSWLSWYQQKPGQPPKLLIYYAFNLASGVPSRFKGSGSGTEYTLTISDLECADAATYYCQCTYGSGSSSSYGCAFGGGTELEIK
notes: also called DDR1-5K/DDR1-5H
B8: DDR1-6 (antibody, V domains shown)
VH: SQSLKESGGDLVKPGASRTLTCIAPGFSFSSSYYMCWVRQAPGKGLEWIACIYASSGSTYYASWAKGRFTISKTSSTTVTLQMTTLTAADTATYFCAAILGADYRLTRLDLWGQGTLVTVSS
VL: ELVMTQTPSPVSAAVGGTVTISCQSSQSVYSNYLSWYQQKPGQPPKLLIYETSTLASGVPSRFKGSGSGTQFTLTISDVQCDDAATYYCQGGYSEIIENTFGGGTEVEIK
notes: also called DDR1-6K/DDR1-6H
B9: DDR1-11 (antibody, V domains shown)
VH: QSLEESGGDLVKPGASLTLTCTASGFSFSSGYYMCWVRQAPGKGLEWIACIYTGRTDFTDYASWAKGRFTISKTSSTTVTLQLTTLTAADTATYFCARGDYSGGVGGNYWLDLWGQGTLVTISS
VL: ELVMTQTASPVSAAVGGTVTINCQASQSIGSTYLSWYQQKPGQPPKLLIYKASILASGVPSRFSGSGSGTEYTLTISGVQCDDAATYYCLYGGFGSSTGDAFGGGTVLVVK
notes: also called DDR1-11K/DDR1-11H
B10: DDR1-12 (antibody, V domains shown)
VH: QSLEESGGRLVTPGTPLTLTCTVSGIDLSNTWMNWVRQAPGKGLEWIGVITDSGTTYYANWAKGRFTISRTSTTVDLKMPSLTTEDTATYFCGRDPGDITSGTNDLWGPGTLVTISS
VL: ELVLTQTPASVSEPVGGTVTIKCQASQTIYSNLAWYQQKPGQRPKLLIYQASKLASGVPSRFKGSGSGTEYTLTISDLECADAATYYCQSYYGADDYTFGGGTEVVVK
notes: also called DDR1-12K/DDR1-12H
B11: DDR1-17 (antibody, V domains shown)
VH: SSVEESGGRLVAPGTPLTLTCTVSGFSLNRYAMSWVRQAPGKGLEWIGIIGSSGSTYYASWAKGRFTISKTSTTVDLKITSPTTEDTATYFCARDLDDSYGYTYATGMDIRLDLWGQGTLVTVSS
VL: ELVLTQTPASVSEPVGGTVTIKCQASQSIGSYLSWYQQKAGQPPKRLIYEASTLASGVPSRFSGSGSGTDFTLTISDLECADVATYYCQNNNGMTVSDFNAFGGGTEVEIK
notes: also called DDR1-17K/DDR1-17H
B12: DDR1-20 (antibody, V domains shown)
VH: QSVKESGGGLFKPMDTLTLTCTVSGFSLSDYAMSWVRQAPGKGLEWIGIINSRDDTGYASWAKGRFTISKTSSTTVDLRITSPTTEDTATYFCAREDSSIPFIVGNYYGMDLWGPGTLVTVSS
VL: ELDLTQTPASVSAAVGGTVTINCQSSQIIDHDHLSWYQQKPGQRPKLLIYRASTLTSGVPSRFKGSGSGTDFTLTISDLECADVATYYCQNNNGMTVSDFNAFGGGTEVEIK
notes: also called DDR1-20K/DDR1-20H
B13: DDR1-23 (antibody, V domains shown)
VH: SQSVKESGGDLVKPGASLTLTCKASGFDLRSYYYMCWVRQAPGKGLEWIACIHGGEGNTYYASWAKGRFTISKTSSTAVTLQMTSLTAADTATYFCARGGWTNYFWGPGTLVTVSS
VL: ELVLTQTPSSVSAAVGGTVTISCQSSQSVYSNNYLAWYQQKPGQPPKLLIYAASTLASGVPSRFKGSGSGTQFTLTISGVQCDDAAVYYCLGGYNDDANFGGGTEVEIK
notes: also called DDR1-23K/DDR1-23H
B14: DDR1-26 (antibody, V domains shown)
VH: EQSLKESGGDLVKPGASLTLTCTASGFDLSSNYYMCWVRQAPGKGPEWIACIYSSNTRTWYARWAKGRFTISKTSSTAVTLQMTSLTAADTATYFCARGGWTNYLWGPGTLVTISS
VL: B13 VL with V3D, Q27E, Y34H, K65S, E107V, I108V
notes: also called DDR1-26K/DDR1-26H
B15: DDR1-28 (antibody, V domains shown)
VH: QSVEESGGRLVTPGTPLTLTCTVSGFSLSSHDMIWVRQAAGKGLEWIGLIISSGNTWYASWAKGRFTISKTSTTVDLKMTSLTTEDTATYFCARDVYSGASPWGPGTLVTISS
VL: ELDLTQTPASVEAAVGGTVTIKCQASQSIDNNDLAWYQQKPGQPPNLLISRTSTLASGVSSRFKGSGSGTEFTLTISDLECADAATYYCQSYCVNTYGYTFGGGTEVVVK
notes: also called DDR1-28K/DDR1-28H
B16: DDR1-29 (antibody, V domains shown)
VH: QSVKSGGGLVKPGASLTLTCKASTFSFNSRYWTCWVRQAPGKGLEWIGCINNGDITTYYTNWATGRFTISKSSSTTVTLQMTSLTAADTATYFCAKGGNLAGDCYGLWGPGTLVTISG
VL: ELVMTQTPASVEAAVGGTVTIKCQASQSISNHLGWYQQKPGQPPKLLIYRASTLESGVSSRFKGSGSGSEFTLTISDLECADAATYYCQSYYIINRSNYANSFGGGTEVEIK
notes: also called DDR1-29K/DDR1-29H
B17: DDR1-1 (antibody, V domains shown)
VH: QSVEESGGRLVTPGTPLTLTCTVSGFSLSRYAMTWVRQAPGKGLEWIGIIGSSGLTYFATWAKGRFTISKTSTTVDLKITSPTTEDTATYFCARGMWYDDSDDYEDYFNLWGPGTLVTISS
VL: ELVLTQTPASVSAAVGGTVTINCQASQNIYSNLAWYQQKPGQPPKLLIYGASNLESGVPSRFKGSGSGTQFTLTISDLECDDAATYYCQSGYYSSSTDIAFGGGTEVVVK
notes: also called DDR1-1K/DDR1-1H

biological target: T1, human DDR2 ECD; experiment: ELISA, DDR2 ECD coated, antibody at 1 ug/ml, HRP anti-rabbit detection
Procedure: FIG. 19. Determination of cross-reactivity of a panel of monoclonal antibodies to human DDR2 using ELISA method. DDR1 or DDR2 ECD protein was coated on a high binding plate and each of monoclonal antibodies at 1 ug/ml concentration was added for binding detection with HRP conjugated anti-rabbit antibody (Jackson ImmuneResearch, PA).
To determination cross-reactivity of a panel of anti-human DDR1 monoclonal antibodies to human DDR2 ECD, an ELISA method was used. DDR1 ECD or DDR2 ECD protein was coated on a high binding plate and each of monoclonal antibodies was applied at 1 ug/ml concentration and binding was detected using HRP conjugated anti-rabbit antibody (Jackson ImmuneResearch, PA). Monoclonal antibodies DDR1-3; DDR1-9; DDR1-10; DDR1-14 and DDR1-33 were specific for DDR1 epitopes, while clones DDR1-13; DDR1-15; DDR1-21; DDR1-22 and DDR1-34 appear to recognize epitopes present on both DDR1 and DDR2 ECD.

Row | Binder | binding result
1 | B1 | binds
2 | B2 | binds
3 | B3 | binds
4 | B4 | binds
5 | B5 | binds

biological target: T2, Human DDR1 extracellular domain (ECD) protein (human, UniProt Q08345 21-417); experiment: BLI (Octet); target not given, recombinant DDR1 assumed
T2 construct: it is treated here as the same molecule; also called recombinant human DDR1 ECD; huDDR1 ECD; not shown: 6xHIS-tag
T2 sequence (Q08345 21-417): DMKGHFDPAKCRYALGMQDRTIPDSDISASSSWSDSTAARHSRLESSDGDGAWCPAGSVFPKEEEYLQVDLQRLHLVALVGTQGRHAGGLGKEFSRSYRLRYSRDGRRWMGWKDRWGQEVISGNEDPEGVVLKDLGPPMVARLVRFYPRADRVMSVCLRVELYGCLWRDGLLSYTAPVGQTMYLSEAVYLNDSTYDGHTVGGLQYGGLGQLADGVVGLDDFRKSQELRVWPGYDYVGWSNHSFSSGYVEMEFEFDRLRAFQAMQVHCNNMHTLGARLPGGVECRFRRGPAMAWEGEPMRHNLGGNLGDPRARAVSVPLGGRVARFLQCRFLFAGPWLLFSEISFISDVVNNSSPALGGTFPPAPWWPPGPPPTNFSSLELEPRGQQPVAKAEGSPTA

Row | Binder | Kd [pM] | koff [s⁻¹] | kon [M⁻¹ s⁻¹]
6 | B6 | 770 | 0.000113 | 146000

biological target: T2, Human DDR1 extracellular domain (ECD) …; experiment: ELISA on DDR1, antibody at 10 and 1 µg/ml

Row | Binder | binding result
7 | B7 | binds
8 | B8 | binds
9 | B9 | binds
10 | B10 | binds
11 | B1 | binds
12 | B2 | binds
13 | B11 | binds
14 | B12 | binds
15 | B3 | binds
16 | B4 | binds
17 | B13 | binds
18 | B14 | binds
19 | B15 | binds
20 | B16 | binds
21 | B5 | binds
22 | B17 | binds
